Assay results as given in ChEMBL document CHEMBL1145182, “Molecular dynamics simulations of the TEM-1 beta-lactamase complexed with cephalothin” (J Med Chem, 2005).

Columns and labels:
[1] = substrate: CC(=O)OCC1=C(C(=O)O)N2C(=O)[C@@H](NC(=O)Cc3cccs3)[C@H]2SC1; assay: (§1) Binding affinity for TEM-1 beta-lactamase; settings: Escherichia coli
[2] = substrate: CC1(C)S[C@@H]2[C@H](NC(=O)Cc3ccccc3)C(=O)N2[C@H]1C(=O)O; assay: as §1; settings: Escherichia coli

B1: Beta-lactamase TEM (Escherichia coli), P62593 (protein)
chain: MSIQHFRVALIPFFAAFCLPVFAHPETLVKVKDAEDQLGARVGYIELDLNSGKILESFRPEERFPMMSTFKVLLCGAVLSRVDAGQEQLGRRIHYSQNDLVEYSPVTEKHLTDGMTVRELCSAAITMSDNTAANLLLTTIGGPKELTAFLHNMGDHVTRLDRWEPELNEAIPNDERDTTMPAAMATTLRKLLTGELLTLASRQQLIDWMEADKVAGPLLRSALPAGWFIADKSGAGERGSRGIIAALGPDGKPSRIVVIYTTGSQATMDERNRQIAEIGASLIKHW
Km [1]: 347 µM
Km [2]: 75 µM
